Measured values taken from the supplement of paper PMC10567573.

B1: SFRS1 (parent)
chain: RDIDLKNRRGGPPFAFVEFEDPRD

Variants of: B1
Assay: protein stability index of a GFP-peptide fusion (GPS, HEK-293T) (PSI 1-6); higher = more stable
Details: c terminus: a fixed tail appended
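Further: lentivirally expressed fusions sorted by FACS into six bins by GFP to DsRed ratio, PSI derived from sequencing read proportions per bin multiplied by bin number.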

Row | Variant | protein stability index
1 | A15L | 3.76
2 | A15D | 4.44
3 | A15K | 4.56
4 | A15H | 4.46
5 | A15G | 4.63
6 | A15M | 3.84
7 | A15N | 4.73
8 | A15F | 3.12
9 | A15C | 3.83
10 | A15I | 3.42
11 | A15E | 5.13
12 | P13E | 4.83
13 | P13L | 3.28
14 | P13D | 4.58
15 | P13V | 3.37
16 | P13K | 4.02
17 | P13Q | 4.79
18 | P13H | 4.65
19 | P13Y | 4
20 | P13A | 4.62
21 | P13W | 3.39
22 | P13G | 3.86
23 | P13T | 4.34
24 | P13R | 4.23

Row | Variant | protein stability index
25 | P13N | 4.59
26 | P13F | 3.42
27 | P13S | 4.57
28 | P13I | 3.34
29 | P13C | 4.51
30 | P13M | 4.02
31 | N7E | 4.26
32 | N7D | 4.54
33 | N7K | 3.41
34 | N7Y | 3.02
35 | N7V | 3.39
36 | N7W | 3.28
37 | N7C | 3.56
38 | N7R | 3.1
39 | N7I | 3.63
40 | N7Q | 3.56
41 | N7P | 3.78
42 | N7L | 3.39
43 | N7M | 3.26
44 | N7T | 3.73
45 | N7A | 3.61
46 | N7F | 2.76
47 | N7H | 3.61
48 | N7G | 4.16

Row | Variant | protein stability index
49 | N7S | 3.5
50 | K6W | 3.79
51 | K6V | 4.09
52 | K6T | 4.02
53 | K6Y | 3.78
54 | R8Q | 4.18
55 | R8W | 3.71
56 | R8V | 4.17
57 | R8C | 4.23
58 | R8E | 4.73
59 | R8L | 3.77
60 | R8P | 4.19
61 | R8H | 3.71
62 | R8T | 4.33
63 | R8I | 4.08
64 | R8M | 4.12
65 | R8D | 4.42
66 | R8G | 4.46
67 | R8K | 4.13
68 | R8Y | 3.96
69 | R8S | 4.32
70 | R8A | 4.06
71 | R8N | 4.27
72 | R8F | 3.75

Row | Variant | protein stability index
73 | G11I | 3
74 | G11H | 3.52
75 | G11D | 4.23
76 | G11M | 2.61
77 | G11W | 3.1
78 | G11L | 2.21
79 | G11C | 3.77
80 | G11N | 3.83
81 | G11P | 3.36
82 | G11F | 3
83 | G11E | 4.47
84 | G11K | 3.78
85 | G11S | 4.17
86 | G11R | 3.25
87 | G11Q | 3.47
88 | G11T | 3.87
89 | G11A | 4.11
90 | G11Y | 3.28
91 | G11V | 3.89
92 | G10R | 2.96
93 | G10Q | 4.18
94 | G10I | 3.41
95 | G10S | 4.21
96 | G10A | 3.76

Row | Variant | protein stability index
97 | G10D | 4.15
98 | G10C | 3.22
99 | G10H | 3.85
100 | G10Y | 3.19
101 | G10F | 3.9
102 | G10M | 3.51
103 | G10W | 2.77
104 | G10K | 3.42
105 | G10N | 3.63
106 | G10P | 3.73
107 | G10V | 3.71
108 | G10E | 4.2
109 | G10L | 3.51
110 | G10T | 4.3
111 | F14E | 5.48
112 | F14P | 5.05
113 | F14M | 4.26
114 | F14D | 4.86
115 | F14T | 4.9
116 | F14S | 5.3
117 | F14I | 4.37
118 | F14C | 4.91
119 | F14H | 5.01
120 | F14A | 5.04

Row | Variant | protein stability index
121 | F14G | 4.92
122 | F14W | 3.77
123 | F14V | 4.55
124 | F14Y | 4.28
125 | F14R | 4.66
126 | F14K | 4.51
127 | F14N | 4.58
128 | F14Q | 5.27
129 | F14L | 3.92
130 | R9T | 4.03
131 | R9W | 4.23
132 | R9A | 4.57
133 | R9P | 4.16
134 | R9D | 4.43
135 | R9Q | 4.11
136 | R9L | 4.27
137 | R9Y | 3.91
138 | R9N | 4.5
139 | R9V | 4.21
140 | R9C | 3.92
141 | R9K | 3.69
142 | R9G | 4.11
143 | R9I | 4.24
144 | R9M | 4.04

Row | Variant | protein stability index
145 | R9S | 4.12
146 | R9F | 3.94
147 | R9E | 4.18
148 | R9H | 4.21
149 | P12H | 4.53
150 | P12V | 3.9
151 | P12E | 4.72
152 | P12D | 5.06
153 | P12F | 3.5
154 | P12G | 4.39
155 | P12A | 4.12
156 | P12R | 3.93
157 | P12W | 3.43
158 | P12Y | 3.98
159 | P12Q | 4.17
160 | P12S | 4
161 | P12C | 4.13
162 | P12K | 4.42
163 | P12L | 3.5
164 | P12M | 3.93
165 | P12N | 4.72
166 | P12I | 3.13
167 | P12T | 4.37
